Where a chain is given by its changes, count along the chain named.
B1: Ab No. 13 (antibody, V domains shown)
VH: QVQLVQSGAEVKKPGSSVKVSCKASGGTFSSYAISWVRQAPGQGLEWMGGIIPISGTANYAQKFQGRVTITADESTSTAYMELSSLRSEDTAVYYCARGGIALSAGPSNIWGQGTLVTVSS
VL: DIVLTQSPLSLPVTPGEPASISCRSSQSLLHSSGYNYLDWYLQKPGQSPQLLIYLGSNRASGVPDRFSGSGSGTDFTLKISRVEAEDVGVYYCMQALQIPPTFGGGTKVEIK
notes: IgG format
B2: Ab No. 15 (antibody, V domains shown)
VH: B1 VH with G100S, I101L, A102S, S104V, A105S, G106Y, P107G, S108P, N109A, I110V
VL: EIVMTQSPATLSVSPGERATLSCRASQSVSSNLAWYQQKPGQAPRLLIYGASTRATGIPARFSGSGSGTEFTLTISSLQSEDFAVYYCQQYITHPPTFGGGTKVEIK
notes: IgG format
B3: Ab No. 10 (antibody, V domains shown)
VH: QVQLVQSGAEVKKPGSSVKVSCKASGGTFSSYAISWVRQAPGQGLEWMGGIIPISGTANYAQKFQGRVTITADESTSTAYMELSSLRSEDTAVYYCARDKGGLGRGGRYWGQGTLVTVSS
VL: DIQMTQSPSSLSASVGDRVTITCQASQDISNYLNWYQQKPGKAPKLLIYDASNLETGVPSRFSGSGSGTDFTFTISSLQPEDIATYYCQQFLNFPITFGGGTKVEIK
notes: IgG format
B4: Ab No. 16 (antibody, V domains shown)
VH: B3 VH with D99L, K100Y, G101H, G102I, L103G, G104T, R105T, G107Y, R108P
VL: DIQMTQSPSSLSASVGDRVTITCRASQSISSYLNWYQQKPGKAPKLLIYGASSLQSGVPSRFSGSGSGTDFTLTISSLQPEDFATYYCQQSYYDPTFGGGTKVEIK
notes: IgG format
B5: Ab No. 14 (antibody, V domains shown)
VH: QVQLVQSGAEVKKPGSSVKVSCKASGGTFSSYAISWVRQAPGQGLEWMGGIIPISGTANYAQKFQGRVTITADESTSTAYMELSSLRSEDTAVYYCARGSLSLAAETPLWGRGTLVTVSS
VL: EIVLTQSPATLSLSPGERATLSCRASQSVSSYLAWYQQKPGQAPRLLIYDASKRATGIPARFSGSGSGTDFTLTISSLEPEDFAVYYCQQYLNFPITFGGGTKVEIK
notes: IgG format
B6: Ab No. 17 (antibody, V domains shown)
VH: QVQLVQSGAEVKKPGSSVKVSCKASGGTFSSYAISWVRQAPGQGLEWMGGVIPISGTANYAQKFQGRVTITADESTSTAYMELSSLRSEDTAVYYCARLYHLALAPAWGQGTLVTVSS
VL: B5 VL with L4M, K53N, Y91A, L92V, F94L
notes: IgG format
B7: Ab No. 12 (antibody, V domains shown)
VH: QVQLVQSGAEVKKPGSSVKVSCKASGGTFSSYAISWVRQAPGQGLEWMGGIIPISGTANYAQKFQGRVTITADESTSTAYMELSSLRSEDTAVYYCARGGIALHRSSSGLLWGRGTLVTVSS
VL: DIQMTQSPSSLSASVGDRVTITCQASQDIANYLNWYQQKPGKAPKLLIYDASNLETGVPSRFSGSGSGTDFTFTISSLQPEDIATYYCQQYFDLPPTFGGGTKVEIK
notes: IgG format
B8: Ab No. 1 (antibody, V domains shown)
VH: QVQLVQSGAEVKKPGASVKVSCKASGYTFTSYAMHWVRQAPGQRLEWMGWINAGTGATKYSQKFQGRVTITRDTSASTAYMELSSLRSEDTAVYYCAKDIGSGFYELSLDYWGQGTLVTVSS
VL: DIQMTQSPSSVSASVGDRVTITCRASQGISSWLAWYQQKPGKAPKLLIYAASNLQSGVPSRFSGSGSGTDFTLTISSLQPEDFATYYCQQIISLPLTFGGGTKVEIK
notes: IgG format
B9: Ab No. 11 (antibody, V domains shown)
VH: QVQLVQSGAEVKKPGSSVKVSCKASGGTFSSYAISWVRQAPGQGLEWMGGIIPISGTANYAQKFQGRVTITADESTSTAYMELSSLRSEDTAVYYCARDRGLGFPHLVWGQGTLVTVSS
VL: B8 VL with N53S, I91G, I92N, L96I
notes: IgG format

target: T1, human CD28 (human, UniProt P10747 19-152, limits assumed); test: selection from yeast-presented synthetic human antibody libraries
T1 construct: also called Cluster of Differentiation 28; Tp44

Binding result, binds:
B1, B2, B3, B4, B5, B6, B7, B8, B9
